According to patent publication US20070004634A1 (published 2007):

Key:
[1] = molecular target: T1, human insulin receptor (HIR) (human, UniProt P06213-2 28-1370, limits assumed); test: 125I-insulin competition, solubilized HIR
T1 construct: detergent-solubilized receptor

[2] = molecular target: soluble human insulin mini-receptor (mIR) (human, UniProt P06213-2 28-746, limits assumed); test: FP vs FITC-RP9 on mIR

T1 sequence (P06213 other isoform, or with tags, fused parts or gaps limits assumed): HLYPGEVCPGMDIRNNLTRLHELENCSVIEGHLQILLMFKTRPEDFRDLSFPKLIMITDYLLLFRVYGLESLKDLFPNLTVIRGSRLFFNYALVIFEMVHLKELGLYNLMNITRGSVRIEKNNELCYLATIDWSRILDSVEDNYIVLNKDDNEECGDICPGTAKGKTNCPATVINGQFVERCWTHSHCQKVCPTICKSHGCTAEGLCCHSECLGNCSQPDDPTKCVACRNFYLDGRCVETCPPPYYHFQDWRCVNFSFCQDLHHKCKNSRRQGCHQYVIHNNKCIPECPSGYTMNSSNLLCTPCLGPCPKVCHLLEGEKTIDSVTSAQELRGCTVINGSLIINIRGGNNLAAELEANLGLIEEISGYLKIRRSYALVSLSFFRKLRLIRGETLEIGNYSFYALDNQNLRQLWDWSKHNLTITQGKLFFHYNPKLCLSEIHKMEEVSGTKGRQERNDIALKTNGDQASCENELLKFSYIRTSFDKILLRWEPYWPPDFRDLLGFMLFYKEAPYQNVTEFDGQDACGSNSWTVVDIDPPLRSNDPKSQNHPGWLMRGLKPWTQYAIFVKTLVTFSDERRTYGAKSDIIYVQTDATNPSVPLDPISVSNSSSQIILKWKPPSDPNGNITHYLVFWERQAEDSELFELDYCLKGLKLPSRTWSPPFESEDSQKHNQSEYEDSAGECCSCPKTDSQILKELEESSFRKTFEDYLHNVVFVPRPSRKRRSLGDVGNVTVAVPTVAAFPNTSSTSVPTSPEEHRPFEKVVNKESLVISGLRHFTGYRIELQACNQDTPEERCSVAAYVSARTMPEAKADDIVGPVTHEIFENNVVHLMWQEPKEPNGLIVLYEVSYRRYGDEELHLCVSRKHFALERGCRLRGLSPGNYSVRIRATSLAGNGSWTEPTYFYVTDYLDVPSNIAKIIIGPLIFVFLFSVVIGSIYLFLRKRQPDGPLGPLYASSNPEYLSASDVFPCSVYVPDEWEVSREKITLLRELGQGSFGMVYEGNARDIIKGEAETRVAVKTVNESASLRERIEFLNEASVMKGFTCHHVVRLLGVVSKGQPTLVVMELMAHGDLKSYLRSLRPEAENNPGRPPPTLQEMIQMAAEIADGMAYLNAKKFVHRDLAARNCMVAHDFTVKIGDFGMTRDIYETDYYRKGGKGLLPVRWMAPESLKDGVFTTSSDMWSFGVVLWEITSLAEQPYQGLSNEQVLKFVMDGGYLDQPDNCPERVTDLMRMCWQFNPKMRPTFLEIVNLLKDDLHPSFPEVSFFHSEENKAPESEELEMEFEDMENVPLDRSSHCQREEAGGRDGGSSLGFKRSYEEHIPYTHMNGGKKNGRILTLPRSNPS

Binder	Kd [1]	IC50 [2]
RWPNFYGYFESLLTHFS [S257]	1400 nM	
FHENFYDWFVRQVSKK [H2C]		770 nM
